Test results as given in patent US20180230220A1 (Amgen, published 2018).
One block for each binder: values may come before it.

Assays:
Experiment in all cases: cell-based or functional assay
FOLR1 [1] = molecular target: T1, FOLR1 (human, UniProt P15328 25-234)
FOLR1 [2] = molecular target: T1, FOLR1; remark: listed apart in the source
HER2 [3] = molecular target: T2, HER2 (human, UniProt P04626 23-1255)
HER2 [4] = molecular target: T2, HER2; remark: listed apart in the source

T1 sequence (P15328 25-234): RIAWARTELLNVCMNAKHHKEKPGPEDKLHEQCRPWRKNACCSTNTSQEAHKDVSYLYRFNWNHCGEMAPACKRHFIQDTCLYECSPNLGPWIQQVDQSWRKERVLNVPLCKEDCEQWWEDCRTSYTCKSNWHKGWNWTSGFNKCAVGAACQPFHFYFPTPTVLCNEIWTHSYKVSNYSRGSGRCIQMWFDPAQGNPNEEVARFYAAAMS

EC50 (pM), T cell-dependent cell cytolysis (TDCC), Cal-51 cells (FOLR1 [1]): 1.27 pM | EC50 (pM), T cell-dependent cell cytolysis (TDCC), T47D cells (FOLR1 [1]): 1.35 pM | EC50 (pM) for eliciting IFN-γ secretion by T cells, T47D cells (FOLR1 [2]): 48.6 pM | EC50 (pM) for eliciting IL-2 secretion by T cells, T47D cells (FOLR1 [2]): 67.3 pM | EC50 (pM) for eliciting IL-10 secretion by T cells, T47D cells (FOLR1 [2]): 110 pM | EC50 (pM) for eliciting IL-13 secretion by T cells, T47D cells (FOLR1 [2]): 127 pM | EC50 (pM) for eliciting TNF-α secretion by T cells, T47D cells (FOLR1 [2]): 41.2 pM
B1: anti-FOLR1/CD3 Bi-Fc (bispecific antibody)
chain 1: not shown
chain 2: HMSSVSAQAAAEPKSSDKTHTCPPCPAPEAAGGPSVFLFPPKPKDTLMISRTPEVTCVVVDVSHEDPEVKFNWYVDGVEVHNAKTKPREEQYNSTYRVVSVLTVLHQDWLNGKEYKCKVSNKALPAPIEKTISKAKGQPREPQVYTLPPSREEMTKNQVSLTCLVKGFYPSDIAVEWESNGQPENNYDTTPPVLDSDGSFFLYSDLTVDKSRWQQGNVFSCSVMHEALHNHYTQKSLSLSPGK

EC50 (pM), T cell-dependent cell cytolysis (TDCC), JIMT-1 cells (HER2 [3]): 11.5 pM | EC50 (pM), T cell-dependent cell cytolysis (TDCC), T47D cells (HER2 [3]): 1.03 pM | EC50 (pM) for eliciting IFN-γ secretion by T cells, JIMT-1 cells (HER2 [4]): 32.9 pM | EC50 (pM) for eliciting IL-2 secretion by T cells, JIMT-1 cells (HER2 [4]): 22.3 pM | EC50 (pM) for eliciting IL-10 secretion by T cells, JIMT-1 cells (HER2 [4]): 9.6 pM | EC50 (pM) for eliciting IL-13 secretion by T cells, JIMT-1 cells (HER2 [4]): 16.4 pM | EC50 (pM) for eliciting TNF-α secretion by T cells, JIMT-1 cells (HER2 [4]): 19.5 pM
B2: anti-HER2/CD3 Bi-Fc (bispecific antibody)
chain 1: not shown
chain 2: B1 chain 2
